According to article PMC7610366 (Nature chemical biology, 2020):
Each block holds one molecule with its values, some of them ahead of it.

Tests used:
[1] = target: 6xHis-tagged RcsF (E. coli) (UniProt P69411); assay: BLI
[2] = target: Untagged BamA (E. coli), P0A940; assay: BLI; settings: remark: other sources report otherwise
BamAB sub-complex = BamAB sub-complex (E. coli, UniProt P0A940;P77774, lipid moiety); assay: native gel or EMSA
BamABCDE holocomplex = BamABCDE holocomplex (E. coli, UniProt P0A940;P77774;P0A903;P0AC02;P0A937, lipid moiety | lipid moiety | lipid moiety | lipid moiety); assay: native gel or EMSA
Chain of BamABCDE holocomplex (P77774 20-392, chain 2 of 4): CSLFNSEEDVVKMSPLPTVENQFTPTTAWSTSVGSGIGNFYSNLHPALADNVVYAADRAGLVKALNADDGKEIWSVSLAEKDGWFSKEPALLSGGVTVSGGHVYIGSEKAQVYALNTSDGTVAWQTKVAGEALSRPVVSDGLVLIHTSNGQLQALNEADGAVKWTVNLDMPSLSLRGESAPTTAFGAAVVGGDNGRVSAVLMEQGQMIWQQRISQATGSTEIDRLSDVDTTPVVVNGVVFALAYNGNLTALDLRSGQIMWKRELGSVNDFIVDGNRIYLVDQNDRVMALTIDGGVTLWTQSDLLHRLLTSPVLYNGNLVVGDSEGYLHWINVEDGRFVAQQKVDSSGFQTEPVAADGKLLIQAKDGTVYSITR
Chain of BamABCDE holocomplex (P0A903 25-344, chain 3 of 4): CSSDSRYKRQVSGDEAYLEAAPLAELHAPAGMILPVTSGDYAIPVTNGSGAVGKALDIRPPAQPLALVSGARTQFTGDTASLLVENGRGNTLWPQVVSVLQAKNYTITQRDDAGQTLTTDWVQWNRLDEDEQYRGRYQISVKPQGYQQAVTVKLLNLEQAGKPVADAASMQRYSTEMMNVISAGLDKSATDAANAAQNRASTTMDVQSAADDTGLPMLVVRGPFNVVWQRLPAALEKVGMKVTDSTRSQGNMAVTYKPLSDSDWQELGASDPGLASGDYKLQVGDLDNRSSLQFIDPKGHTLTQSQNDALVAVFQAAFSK
Chain of BamABCDE holocomplex (P0AC02 20-245, chain 4 of 4): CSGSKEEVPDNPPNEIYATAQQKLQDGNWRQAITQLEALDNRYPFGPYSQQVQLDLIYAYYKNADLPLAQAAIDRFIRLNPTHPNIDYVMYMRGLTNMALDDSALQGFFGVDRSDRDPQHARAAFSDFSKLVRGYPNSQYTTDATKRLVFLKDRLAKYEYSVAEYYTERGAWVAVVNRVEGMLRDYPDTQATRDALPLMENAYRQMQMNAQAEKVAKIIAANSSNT
Chain of BamABCDE holocomplex (P0A937 20-113, chain 5 of 4): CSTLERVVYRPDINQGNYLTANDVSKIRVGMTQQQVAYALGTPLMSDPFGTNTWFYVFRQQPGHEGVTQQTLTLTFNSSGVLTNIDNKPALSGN

Chain of BamAB sub-complex (P77774 20-392, one chain of several): as the sequence (P77774 20-392, chain 2 of 4) above

- Kd [1]: 420 nM
Molecule: Untagged BamA (from UniProt P0A940 21-810) (natural protein; other documents disagree on this pair)

- Kd [2]: 350 nM
B1: 6xHis-tagged RcsF, P69411 16-134 (natural protein)
chain: CSMLSRSPVEPVQSTAPQPKAEPAKPKAPRATPVRIYTNAEELVGKPFRDLGEVSGDSCQASNQDSPPSIPTARKRMQINASKMKANAVLLHSCEVTSGTPGCYRQAVCIGSALNITAK
modifications: here or on the partner: biotin (EZ-Link NHS-PEG4-biotin) where immobilised on streptavidin tips

- binding result (BamAB sub-complex): binds
- binding result (BamABCDE holocomplex): binds
B2: RcsF (natural protein)
chain: B1 chain
modifications: lipid anchor
